Experiments:
[1] = target: T1, REK7, endogenous, on rat embryonic (E16) cortical neurons (rat, UniProt P54757 27-1005 at identity 0.97)); assay: cell-based or functional assay
T1 chain: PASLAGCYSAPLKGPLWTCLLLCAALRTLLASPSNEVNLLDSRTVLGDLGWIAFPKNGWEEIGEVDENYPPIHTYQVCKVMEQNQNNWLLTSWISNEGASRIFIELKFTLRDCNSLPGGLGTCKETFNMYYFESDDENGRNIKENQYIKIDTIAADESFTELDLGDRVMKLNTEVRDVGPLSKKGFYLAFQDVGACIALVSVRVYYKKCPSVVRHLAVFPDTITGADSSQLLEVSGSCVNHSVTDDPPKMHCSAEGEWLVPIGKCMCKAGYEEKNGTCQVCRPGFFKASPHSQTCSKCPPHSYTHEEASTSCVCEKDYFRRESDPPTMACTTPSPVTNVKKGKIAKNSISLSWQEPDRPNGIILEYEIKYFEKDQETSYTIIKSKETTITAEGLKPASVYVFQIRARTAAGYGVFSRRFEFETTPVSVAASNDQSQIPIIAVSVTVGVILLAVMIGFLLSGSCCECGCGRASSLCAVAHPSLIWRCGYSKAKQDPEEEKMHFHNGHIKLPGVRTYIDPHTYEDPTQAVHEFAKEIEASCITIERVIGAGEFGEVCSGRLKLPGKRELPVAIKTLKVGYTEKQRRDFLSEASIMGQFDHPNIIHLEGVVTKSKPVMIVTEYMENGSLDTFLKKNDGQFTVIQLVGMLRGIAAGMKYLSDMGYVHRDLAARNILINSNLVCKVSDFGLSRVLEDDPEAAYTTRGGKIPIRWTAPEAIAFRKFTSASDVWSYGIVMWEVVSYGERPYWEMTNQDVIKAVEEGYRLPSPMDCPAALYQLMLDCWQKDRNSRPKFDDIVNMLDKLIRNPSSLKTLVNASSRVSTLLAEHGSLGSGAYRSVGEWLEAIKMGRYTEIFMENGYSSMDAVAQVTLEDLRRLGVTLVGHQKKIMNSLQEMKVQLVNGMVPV

CD4-IgG = CD4-IgG (human, UniProt P01730 26-205); assay: immunoaffinity chromatography of BT20 conditioned medium on CD4-IgG-Protein A precolumn; SDS-PAGE, silver stain
Description: 200 ml of BT20 conditioned media, concentrated as described above from 12 liters and frozen, was thawed, centrifuged at 17,000 rpm in a Sorvall SS34 rotor, and filtered through a 0.45 μm filter to clarify the solution. The 200 ml was pumped through a 2.0 ml CD4-IgG—Protein A (CD4-IgG covalently linked to Protein A through IgG moiety) immunoaffinity precolumn and a 1.0 ml REK7-IgG - Protein A (REK7-IgG covalently linked to Protein A through IgG moiety) immunoaffinity column in tandem with a flow rate of 0.5 ml/min. All chromatography was carried out at 4° C. Following one complete passage of the media through both columns, the flow rate was reduced to 0.2 ml/min, and the media was recycled through both columns. Following the loading of the REK7-IgG column, the two column were separated from each other, washed with 10 column volumes of PBS, and then eluted with four separate washes of 100 mM sodium citrate, pH 3.0 (2 ml each for the CD4-IgG column and 1 ml each for the REK7-IgG column). The first two washes were allowed to immediately flow through the column whereas the last two were incubated for 15 minutes before collection. The eluates were brought to pH 7.4 by the addition of 50 mM potassium phosphate, and an aliquot of each was analyzed by sodium dodecycl sulfate (SDS)-polyacrylamide gel electrophoresis (PAGE). […]

B1: soluble AL-1 (purified, secreted form without the GPI membrane anchor) (ligand)
chain: QDPGSKAVADRYAVYWNSSNPRFQRGDYHIDVCINDYLDVFCPHYEDSVPEDKTERYVLYMVNFDGYSACDHTSKGFKRWECNRPHSPNGPLKFSEKFQLFTPFSLGFEFRPGREYFYISSAIPDNGRRSCLKLKVFVRPTNSCMKTIGVHDRVFDVNDKVENSLEPADDTVHESAEPSRGEN
notes: also called purified soluble AL-1; REK7 ligand from BT20 conditioned medium
[1]
  tyrosine autophosphorylation of REK7 (immunoprecipitation with anti-REK7, anti-phosphotyrosine immunoblot): ~2 fold
CD4-IgG
  binding result: no binding
